In the Human Domainome abundance scans (Beltran et al. 2025):
± gives the uncertainty stated by the source.

B1: SAM and SH3 domain-containing protein 1, residues 630 to 700; numbered along this chain, O94885 (parent)
chain: GRPPQPKSVEDLLDRINLKEHMPTFLFNGYEDLDTFKLLEEEDLDELNIRDPEHRAVLLTAVELLQEYDSN

Variants of: B1
Experiment: abundance fitness (aPCA) (normalised: wild type 0, dead -1); higher = more abundant; growth selection in yeast, the domain comes from the species named
Conditions: Homo sapiens

Row | Variant | abundance fitness
1 | GRPPQPKSVEDLLDIINLKEHMPTFLFNGYEDLDTFKLLEEEDLDELNIRDPEHRAVLLTAVELLQEYDSN | -0.23 ± 0.051
2 | GRPPQPKSVEDLLDDINLKEHMPTFLFNGYEDLDTFKLLEEEDLDELNIRDPEHRAVLLTAVELLQEYDSN | -0.454 ± 0.065
3 | GRPPQPKSVEDLLDFINLKEHMPTFLFNGYEDLDTFKLLEEEDLDELNIRDPEHRAVLLTAVELLQEYDSN | -0.286 ± 0.053
4 | GRPPQPKSVEDLLDLINLKEHMPTFLFNGYEDLDTFKLLEEEDLDELNIRDPEHRAVLLTAVELLQEYDSN | -0.223 ± 0.037
5 | GRPPQPKSVEDLLDKINLKEHMPTFLFNGYEDLDTFKLLEEEDLDELNIRDPEHRAVLLTAVELLQEYDSN | -0.036 ± 0.049
6 | GRPPQPKSVEDLLDHINLKEHMPTFLFNGYEDLDTFKLLEEEDLDELNIRDPEHRAVLLTAVELLQEYDSN | -0.342 ± 0.054
7 | GRPPQPKSVEDLLDGINLKEHMPTFLFNGYEDLDTFKLLEEEDLDELNIRDPEHRAVLLTAVELLQEYDSN | -0.342 ± 0.049
8 | GRPPQPKSVEDLLDAINLKEHMPTFLFNGYEDLDTFKLLEEEDLDELNIRDPEHRAVLLTAVELLQEYDSN | 0.055 ± 0.038
9 | GRPPQPKSVEDLLDEINLKEHMPTFLFNGYEDLDTFKLLEEEDLDELNIRDPEHRAVLLTAVELLQEYDSN | -0.07 ± 0.055
10 | GRPPQPKSVEDLLDCINLKEHMPTFLFNGYEDLDTFKLLEEEDLDELNIRDPEHRAVLLTAVELLQEYDSN | -0.374 ± 0.059
11 | GRPPQPKSVEDLLQRINLKEHMPTFLFNGYEDLDTFKLLEEEDLDELNIRDPEHRAVLLTAVELLQEYDSN | -0.269 ± 0.07
12 | GRPPQPKSVEDLLYRINLKEHMPTFLFNGYEDLDTFKLLEEEDLDELNIRDPEHRAVLLTAVELLQEYDSN | -0.602 ± 0.069
13 | GRPPQPKSVEDLLTRINLKEHMPTFLFNGYEDLDTFKLLEEEDLDELNIRDPEHRAVLLTAVELLQEYDSN | -0.086 ± 0.045
14 | GRPPQPKSVEDLLFRINLKEHMPTFLFNGYEDLDTFKLLEEEDLDELNIRDPEHRAVLLTAVELLQEYDSN | -0.734 ± 0.068
15 | GRPPQPKSVEDLLPRINLKEHMPTFLFNGYEDLDTFKLLEEEDLDELNIRDPEHRAVLLTAVELLQEYDSN | -0.834 ± 0.086
16 | GRPPQPKSVEDLLGRINLKEHMPTFLFNGYEDLDTFKLLEEEDLDELNIRDPEHRAVLLTAVELLQEYDSN | -0.218 ± 0.055
17 | GRPPQPKSVEDLLSRINLKEHMPTFLFNGYEDLDTFKLLEEEDLDELNIRDPEHRAVLLTAVELLQEYDSN | -0.168 ± 0.039
18 | GRPPQPKSVEDLLRRINLKEHMPTFLFNGYEDLDTFKLLEEEDLDELNIRDPEHRAVLLTAVELLQEYDSN | -0.434 ± 0.055
19 | GRPPQPKSVEDLLCRINLKEHMPTFLFNGYEDLDTFKLLEEEDLDELNIRDPEHRAVLLTAVELLQEYDSN | -0.215 ± 0.054

Row | Variant | abundance fitness
20 | GRPPQPKSVEDLLMRINLKEHMPTFLFNGYEDLDTFKLLEEEDLDELNIRDPEHRAVLLTAVELLQEYDSN | -0.34 ± 0.066
21 | GRPPQPKSVEDLLIRINLKEHMPTFLFNGYEDLDTFKLLEEEDLDELNIRDPEHRAVLLTAVELLQEYDSN | -0.293 ± 0.054
22 | GRPPQPKSVEDLLKRINLKEHMPTFLFNGYEDLDTFKLLEEEDLDELNIRDPEHRAVLLTAVELLQEYDSN | -0.273 ± 0.065
23 | GRPPQPKSVEDLLNRINLKEHMPTFLFNGYEDLDTFKLLEEEDLDELNIRDPEHRAVLLTAVELLQEYDSN | -0.131 ± 0.048
24 | GRPPQPKSVEDLLVRINLKEHMPTFLFNGYEDLDTFKLLEEEDLDELNIRDPEHRAVLLTAVELLQEYDSN | -0.287 ± 0.047
25 | GRPPQPKSVEDLKDRINLKEHMPTFLFNGYEDLDTFKLLEEEDLDELNIRDPEHRAVLLTAVELLQEYDSN | -0.715 ± 0.08
26 | GRPPQPKSVEDLSDRINLKEHMPTFLFNGYEDLDTFKLLEEEDLDELNIRDPEHRAVLLTAVELLQEYDSN | -0.887 ± 0.068
27 | GRPPQPKSVEDLNDRINLKEHMPTFLFNGYEDLDTFKLLEEEDLDELNIRDPEHRAVLLTAVELLQEYDSN | -0.802 ± 0.091
28 | GRPPQPKSVEDLCDRINLKEHMPTFLFNGYEDLDTFKLLEEEDLDELNIRDPEHRAVLLTAVELLQEYDSN | -0.946 ± 0.1
29 | GRPPQPKSVEDLVDRINLKEHMPTFLFNGYEDLDTFKLLEEEDLDELNIRDPEHRAVLLTAVELLQEYDSN | -1 ± 0.085
30 | GRPPQPKSVEDLGDRINLKEHMPTFLFNGYEDLDTFKLLEEEDLDELNIRDPEHRAVLLTAVELLQEYDSN | -0.752 ± 0.072
31 | GRPPQPKSVEDLEDRINLKEHMPTFLFNGYEDLDTFKLLEEEDLDELNIRDPEHRAVLLTAVELLQEYDSN | -0.572 ± 0.081
32 | GRPPQPKSVEDLMDRINLKEHMPTFLFNGYEDLDTFKLLEEEDLDELNIRDPEHRAVLLTAVELLQEYDSN | -0.724 ± 0.077
33 | GRPPQPKSVEDLQDRINLKEHMPTFLFNGYEDLDTFKLLEEEDLDELNIRDPEHRAVLLTAVELLQEYDSN | -0.447 ± 0.081
34 | GRPPQPKSVEDLIDRINLKEHMPTFLFNGYEDLDTFKLLEEEDLDELNIRDPEHRAVLLTAVELLQEYDSN | -1.04 ± 0.11
35 | GRPPQPKSVEDLFDRINLKEHMPTFLFNGYEDLDTFKLLEEEDLDELNIRDPEHRAVLLTAVELLQEYDSN | -0.576 ± 0.071
36 | GRPPQPKSVEDLPDRINLKEHMPTFLFNGYEDLDTFKLLEEEDLDELNIRDPEHRAVLLTAVELLQEYDSN | -0.71 ± 0.07
37 | GRPPQPKSVEDLRDRINLKEHMPTFLFNGYEDLDTFKLLEEEDLDELNIRDPEHRAVLLTAVELLQEYDSN | -0.803 ± 0.06
38 | GRPPQPKSVEDLWDRINLKEHMPTFLFNGYEDLDTFKLLEEEDLDELNIRDPEHRAVLLTAVELLQEYDSN | -0.99 ± 0.095
